What was measured:
[1] = molecular target: T1, 15N-labelled NHR4 MYND domain of RUNX1T1 (UniProt Q06455 510-559, 15N-labelled); assay: NMR; pH 6
T1 chain: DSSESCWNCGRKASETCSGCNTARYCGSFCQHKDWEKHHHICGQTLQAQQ

[2] = molecular target: T1, 15N-labelled NHR4 MYND domain of RUNX1T1; assay: NMR; pH 7.5

## Ac-TISNPPPLISSAK-NH2 [NCOR2 peptide (human NCOR2 residues 1101-1113)]
[1]
  Kd: 370 µM

## Ac-TLNQPPPLLRPTL-NH2 [RCOR3_1 peptide (human RCOR3 residues 410-422)]
[1]
  Kd: 820 µM

## Ac-LNQPPPPLIRPAN-NH2 [RCOR3_3 peptide (human RCOR3 residues 448-460)]
[2]
  Kd: 370 µM
[1]
  Kd: 680 µM

Reference: article PMC11239676 (2024)
